This passage reports amyloid nucleation score results from the supplement of paper PMC12042874.

The series is described as follows: amyloid nucleation score (Sup35N fusion, yeast selection) (log enrichment); library NNK1; higher = more nucleation; inactive = no reads after selection. A digest of the protocol: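 Plasmid inserts were Illumina-sequenced at input and output from psi-negative yeast expressing Sup35N fused to peptides of 20 random codons. The yeast were induced with 100 μM copper sulfate for 24 hours and grown 7 days at 30°C on medium lacking adenine and uracil, and sequences with under 100 input reads were excluded. Nucleation score is the DiMSum log enrichment of output over input reads, centred on the mode score of non-aggregating sequences.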

± gives the uncertainty stated by the source.

Turning to SVCGH, the amyloid nucleation score was -0.237 ± 0.37. As to DYYLATCYLPYALNCLAFLN, the amyloid nucleation score is -1.18 ± 0.97. The result for LFFQPLVLFKKRLEYCFRLL reads 0.2 ± 0.6; that for VGHYDNSYGRNGLLTTR, -0.179 ± 0.53; that for LGVIYLRLWFQSGGRQVLEG, 0.089 ± 0.42. The result for LCDYKRPCMTMYNHHELLII reads 0.005 ± 0.47. For the substance ARRGVVNPYLSVEFFFRRGL, the amyloid nucleation score is 0.493 ± 0.68. In the case of EKRFFVSLVNVYLDL, the amyloid nucleation score is 4.57 ± 0.071. In turn, IGPGTWGLSLYRDRILITTM yielded an amyloid nucleation score of -0.037 ± 0.89. With KLLPSKLCNASRFSFFYKES, the amyloid nucleation score is -0.82 ± 0.81. Take LERKMYRNISSLTVVGYTMS: the amyloid nucleation score is -0.095 ± 0.51. For RSELI, the amyloid nucleation score is -0.211 ± 0.36. As to FMAGNFSFFLRRNA, the amyloid nucleation score result is “inactive”. The result for TTGSGSRSNWWYGSPNYYLS reads -0.867 ± 0.53. With QLRYKIVMHRQSEHKPSLLN the figure was -0.855 ± 1.5; with STVNGICSRKLAIRELFSNH, -0.063 ± 0.26; with VGNSSGWLTNHLAEKRGQTM, 0.268 ± 1.1. As to DMQIWFLYDCI, the amyloid nucleation score entry is “inactive”. Consider GGIYANYNFGYLARTESGLG, for which the amyloid nucleation score came to 1.04 ± 0.7. With NNMYTNVRVLKGRCLWVY the figure was 0.376 ± 0.28; with GSTTSLRFTVLQTFLFSCNN, -0.663 ± 0.8; with YTIGTRPTMLRLFGVLRWAG, 1.19 ± 0.43.

For the substance LQNETLSMSMRLLMAYFIKL, the amyloid nucleation score turned out to be 0.13 ± 1.2. VLHCCNAESWLGGWPLGVKN registered an amyloid nucleation score of 0.85 ± 0.6. For the substance RINVSGWQLQATLSFLLAFS, the amyloid nucleation score worked out at 0.289 ± 0.5. As for NGFPTNELLFPALKVCNSRV, the amyloid nucleation score was 0.945 ± 1.1. LLSIVPPDIFCQFSGHGRLT yielded an amyloid nucleation score of 0.26 ± 0.62. TTIQGRPVNVAAFRTTLLTR yielded an amyloid nucleation score of -1.11 ± 2.7.

In turn, MKCYVFLKNWMWLVDYLDSI showed an amyloid nucleation score of -0.991 ± 2.4.

On to LKAELSNLKAHVLW, for which the amyloid nucleation score was 0.777 ± 0.54. With QVRLVNWVCRM the figure was 3.71 ± 0.059. In the case of GHISIMVHYLFVSTHSSQED, the amyloid nucleation score turned out to be 4.46 ± 0.13. Turning to VTIYFILRNGGRVSESLNPW, the amyloid nucleation score is 7.19 ± 0.084. For AVQKVRCRWN, the amyloid nucleation score is -0.009 ± 0.23. Substance SCIVLYMKGSGISCTNYTYC displayed an amyloid nucleation score of 6.094 ± 0.054. With FDSRRGEGALMSNDSSCERG the figure was -0.185 ± 0.69. GPTYVSSFLELWRNTSHDFC showed an amyloid nucleation score of -0.402 ± 0.88. For the substance GIGLGFQ, the amyloid nucleation score is -0.563 ± 0.53. In turn, PVSDLVIFLQLRFRNTCMLP displayed an amyloid nucleation score of 0.952 ± 0.92. With NGLCLDDIVRLFVIITSVGP the figure was 0.821 ± 1.1; with LVTNAYTYSSTGIYDYVRPG, 0.093 ± 0.81. The substance IYFQVSRLMSVRRAMKSPKP registered an amyloid nucleation score of -0.666 ± 1.4. The result for QVTNRMRLRLMYR reads 0.699 ± 0.37; that for FSVKFVSNPFSQLLSARPWW, -0.603 ± 0.34.

AVRDDMDY: the amyloid nucleation score is -0.059 ± 0.22.

Substance DRRCLRYSLNCLLFRSIYYN displayed an amyloid nucleation score of 0.652 ± 1. With HVQEDLNAVGHPLEFEMTVR the figure was -0.979 ± 1.9; with IHWANPLTVSAFKVWVEDMV, 0.256 ± 0.29; with PALNILNHYLLCKDPLFVRV, 0.348 ± 0.37.

For the substance RRDSYFCVWYFWGPDEGCPF, the amyloid nucleation score was found to be 4.46 ± 0.1. With NLQVKFVVYIMPLQKD the figure was 0.747 ± 0.44. For the substance QVGPVREHEHKVLAGLSMDW, the amyloid nucleation score was found to be 0.498 ± 0.38. In turn, LRYSYTRDHSGTPYPSTGNS returned an amyloid nucleation score of -0.74 ± 1.1. With LRFVVFASTIGRGIGST, the amyloid nucleation score is -0.892 ± 0.48. With MMFLTNCCFMVLNCYTCVRY the figure was 3.53 ± 0.066; with SCRSLDAMDKSWS, 1.5 ± 0.52; with LILHSNSGFNGYWVSQWNTM, -0.304 ± 0.44. The result for LLAVCYVIF reads 1.98 ± 0.24; that for SGVINTAAMIRTDPWRVLDG, 0.765 ± 0.42. Regarding MSDSRIVTVIVRRQPVSQRS, the amyloid nucleation score is 1.33 ± 0.84. In turn, KRPHGDH returned an amyloid nucleation score of 0.416 ± 0.73. As to DWMLISE, the amyloid nucleation score was -0.084 ± 0.28. DCYNLKQWRSCCDLAVASGG gave an amyloid nucleation score of 0.24 ± 0.88. DDCESFEMRAFM had an amyloid nucleation score of 1 ± 0.55. Turning to GSFLRGPHPKNY, the amyloid nucleation score was determined as 0.853 ± 0.66.

FYRSQMIFFYMLVAPMWGRL showed an amyloid nucleation score of -0.599 ± 0.56. With VMTVMVFMRYRGRFVYG the figure was -0.041 ± 0.98; with TWQLNIYMEKFSGVEKSSTV, 7.841 ± 0.053; with FASLFYKLQASLFTLDNIMH, -0.006 ± 0.88. Regarding HSKRYCGACDLGYLCYRCNI, the amyloid nucleation score was -0.333 ± 0.24.

PSGVCSIVVFKCLRRVMSSL registered an amyloid nucleation score of 0.353 ± 0.35. As to GILLRH, the amyloid nucleation score is -0.742 ± 1.2.

DIPYVFLLFLQECDNVFLCH gave an amyloid nucleation score of 2.54 ± 0.17. In turn, TKLTSVYMK came in with an amyloid nucleation score of -0.355 ± 0.62. On to MLGCFISFTIKLLG, for which the amyloid nucleation score came to 1.39 ± 0.11. LRYCNMHHRHDSYGLSSYSY returned an amyloid nucleation score of 2.21 ± 0.11. Take WSRMGLAILRFFKYLS: the amyloid nucleation score stood at 0.093 ± 0.36.

On to KNLVWMDRVQFRLSWAHVRL, for which the amyloid nucleation score is -1.38 ± 2.4. In turn, SSILISFI came in with an amyloid nucleation score of -0.471 ± 0.94. IEAYVINGKLDWALWFRGDE came in with an amyloid nucleation score of -0.407 ± 0.85. Consider SMVNNWIMDCLWAILWVIDI, for which the amyloid nucleation score entry was “inactive”.

In the case of SNSLFNVSQSRSSKSLYQNA, the amyloid nucleation score came out at 0.264 ± 0.97. Substance PREVVAQKHCSLLQFDLLYS registered an amyloid nucleation score of -0.556 ± 0.48. Consider QNFNFSWVYTFYTRICTLYF, for which the amyloid nucleation score was 5.872 ± 0.047.

For the substance SCKYSAQNLWHLFYRNSLSS, the amyloid nucleation score is -2.29 ± 2.1. With NDFYVLNASFSSRHSYAIRH, the amyloid nucleation score worked out at 1.1 ± 0.3. Substance SCTCVQHPDGSYAFEIGAAN had an amyloid nucleation score of 0.009 ± 0.96. On to WTVSSVIGNGWQCNRSYG, for which the amyloid nucleation score is 0.247 ± 0.27. With LRTRSLTALFQLCYHTCNVG the figure was 0.431 ± 0.42; with NLYVNN, -0.623 ± 1. With ENTVDPLRLDWCSGTSVWYK the figure was 0.54 ± 0.88; with CWNVLNCMHAFRCGPMNQRR, 0.831 ± 0.58.

In turn, SRIGTCGLNSCCLINNIVRD came in with an amyloid nucleation score of 6.919 ± 0.045. In turn, FNLGSGDWL returned an amyloid nucleation score of -0.842 ± 0.65. FMDWIVSCGKCKIGSYYLCI came in with an amyloid nucleation score of -0.388 ± 0.29. IMTSWFLPQSCQNDWDKLY yielded an amyloid nucleation score of -0.012 ± 0.2. MFMHELHMVDP had an amyloid nucleation score of -0.873 ± 0.77. On to ICHFVLYVQRPNSGWHYKSL, for which the amyloid nucleation score is 1.91 ± 0.53.

In the case of FSSYPLGFRNRRDTVDMTIV, the amyloid nucleation score was determined as 0.018 ± 0.38. In the case of DPAHLSGWLLCSP, the amyloid nucleation score was determined as 0.624 ± 0.45. Substance NGIMKIEKYG displayed an amyloid nucleation score of 0.312 ± 0.79. In the case of LYKLTEFQAYKVIRPSACCV, the amyloid nucleation score was -1.13 ± 2.4. The result for VNTIQASMYW reads 1.22 ± 0.62; that for AQARWCWRLH, 0.963 ± 0.69; that for EEQVDLIWLMYGAYHVCVMW, 0.416 ± 0.43.

For NIGVCQIFLDTGMGISVFLN, the amyloid nucleation score came to 6.06 ± 0.08.

For the substance RLLGLHWIT, the amyloid nucleation score was 1.5 ± 0.54.

The substance SLYELPWDNYP had an amyloid nucleation score of -0.043 ± 1.4. Substance YIKAGLFGCYMVAGGAYNPV came in with an amyloid nucleation score of 1.58 ± 0.31. YDHCEGCWMSNRMWELGWKG returned an amyloid nucleation score of 0.048 ± 0.33. In turn, DFLMMSVLHHNNVSYS displayed an amyloid nucleation score of 1.52 ± 0.66. With YDTNDGFMTGVQ the figure was -1.56 ± 1.3. VVLNCYIYVIPA showed an amyloid nucleation score of 3.39 ± 0.13.

Take NLCRSNTRVQNAKKCAL: the amyloid nucleation score was -0.168 ± 0.26. The result for VSFNCTNGFRIKHVLWSTDN reads 1.09 ± 0.17; that for HRRRYAVNFSVEIMIRALG, -1 ± 1.6; that for EPVYISDWWTACEVADHVSL, “inactive”. With IDVRI, the amyloid nucleation score is -0.152 ± 0.43.

As for EFLRNGLIILIVSLSAGELS, the amyloid nucleation score is 0.137 ± 0.23. Substance REDAYR returned an amyloid nucleation score of -0.429 ± 0.91. In turn, CIEDVCCS had an amyloid nucleation score of -0.016 ± 0.23. As for QYYFARIREFLSIQFIAWYC, the amyloid nucleation score was found to be 0.172 ± 0.32. With RKGSVSQRDYSIDYWGFCRC, the amyloid nucleation score turned out to be 1.37 ± 0.22.

For YFYTSHFSLLTSTQFIYRLG, the amyloid nucleation score amounted to 0.392 ± 0.33. With TTLPREYYHRRVSVG, the amyloid nucleation score amounted to 0.373 ± 0.43. For YWNDVAS, the amyloid nucleation score is -0.931 ± 0.75. Turning to SNTSRLVRRVVQSPYTTCGG, the amyloid nucleation score was found to be 0.312 ± 0.46. With DFWSYDDVVFGRC, the amyloid nucleation score was determined as 1.3 ± 0.6. In the case of MFISIGLPPQRRQDSHGWGG, the amyloid nucleation score is 0.532 ± 0.37. In turn, TVKSWKFNRFIGLKRSTESL had an amyloid nucleation score of 0.238 ± 0.42. With QMDMCDYERFYLA the entry was “inactive”.

For the substance CHRRMMNEWSGLKNVLFKKG, the amyloid nucleation score came out at 0.791 ± 0.97. SCGNVGQRVVNIQYVGNSRF yielded an amyloid nucleation score of 6.34 ± 0.077. The result for HHLTRTTPYPTSTWLAQLLS reads 0.994 ± 0.63; that for IMYCLFGHLFLLRIGGFIMG, 0.101 ± 0.68; that for VAFRLTIGCVVSVSINVAGV, 1.19 ± 0.62. As for YVVWDICKRVLLQWRYPPFS, the amyloid nucleation score is -0.077 ± 1.7. The result for ASYYQWLSLFFLTNRPFFGG reads -0.809 ± 1.2. GWCFVSRDLVNYLMCVTAGV yielded an amyloid nucleation score of -1.02 ± 0.88.
